Values of other authors as cited in PMC6678900.

Key:
TRAILR1 (Homo sapiens) = TRAILR1 (Homo sapiens) (UniProt O00220)
TRAILR2 (Homo sapiens) = TRAILR2 (Homo sapiens) (UniProt O14763)
TRAILR4 (Homo sapiens) = TRAILR4 (Homo sapiens) (UniProt Q9UBN6)

Substance: TRAILR1 (from UniProt O00220)
- Kd (TRAILR1 (Homo sapiens)): > 1000 nM

Substance: TRAILR2 (from UniProt O14763)
- Kd (TRAILR2 (Homo sapiens)): > 1000 nM

Substance: TRAILR4 (from UniProt Q9UBN6)
- Kd (TRAILR4 (Homo sapiens)): > 1000 nM
